We go through three molecules from PMC6546359.

To fix the notation:
B1: FsrA (structured_RNA)
RNA: AUAGAGAGAAGCUACUCUCUGUUCCCCAACCCCUCUAUCAGAUCAAGAUCCGGAAAAAACUUGGCGCUACCCCCGCCAAGUUUUU
B2: RnaC (structured_RNA)
RNA: UAAGGCCGGCGCGAUACUCCCUAUAACAUCCUUUUCAGUAGAUUUCAUUAUCGUGCCGGUUUUCUCAUAUGCAAAGCAAUCCCGCCAAUCAGAUUGGCGGGGAUUUUAUAUUU
B3: RoxS (structured_RNA)
RNA: GUGAAAUUGAUCACAAACAAACAUUACCCCUUUGUUUGACCGUGAAAAUUUCUCCCAUCCCCUUUGUUGUCGUUAAGACAUAUGAAACCGCGCUUAUCCCGGCGCGGUUUCUUU

This data set addresses T1, CsrA-Strep (Bacillus subtilis, UniProt P33911 1-74).
T1 sequence: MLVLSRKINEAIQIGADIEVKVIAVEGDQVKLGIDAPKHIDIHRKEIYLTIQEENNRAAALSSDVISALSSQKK
Nature of the data set: EMSA.
In the case of B1, the binding result was “no binding”. To B2 belongs “no binding”; to B3, “no binding”.
